Assay results: paper PMC9163516

T1: biotinylated avi-tagged TβRI, P36897
T1 chain: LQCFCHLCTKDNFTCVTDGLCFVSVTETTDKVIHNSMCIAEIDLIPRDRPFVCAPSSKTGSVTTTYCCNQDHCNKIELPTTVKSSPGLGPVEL


Molecular target: T1, biotinylated avi-tagged TβRI, P36897
Experiment: SPR; BIAcore X100; biotinylated avi-tagged TβRI or TβRII captured on neutravidin-coated CM-5 chip (results say streptavidin) at 50-150 RU; TGM constructs injected as 2-fold dilution series in 25 mM Hepes, pH 7.4, 150 mM NaCl, 0.005% P20, 100 μl/min; 1:1 kinetic fit of a single injection series

Binder	Kd [nM]	koff [s⁻¹]	kon [M⁻¹ s⁻¹]
TGM-D2 (domain or fragment, modifications not checked) RCSPLPTNDTVSFEYLKATVNPGIIFNITVHPDASGKYPELTYIKRICKNFPTDSNVQGHIIGMCYNAEWQFSSTPTCPAS	310	0.091	300000
TGM-D12 (domain or fragment, modifications not checked) DDSGCMPFSDEAATYKYVAKGPKNIEIPAQIDNSGMYPDYTHVKRFCKGLHGEDTTGWFVGICLASQWYYYEGVQECDDRRCSPLPTNDTVSFEYLKATVNPGIIFNITVHPDASGKYPELTYIKRICKNFPTDSNVQGHIIGMCYNAEWQFSSTPTCPAS	24	0.0016	67000
